Measured values as given in patent publication US20100048604A1, “Ligands for Aldoketoreductases” (priority 2004, published 2010).

Key:
AKR1C1-AKR1C4 = test: Substrate tolerance and selectivity across the four human AKR1C isozymes; assay type: biochemical; settings: AKR1C1-AKR1C4, purified enzymes, NADPH
Excerpt: (§1) AKR1C2 and AKR1C3 Selective Probes: Probes (5a-5i) were examined as substrates for the four purified human HSD isozymes (AKR1C1-AKR1C4) under standard assay conditions [catalytic quantities of enzyme, an excess of cofactor (NADPH)]. The initial reaction rates were used to derive standard kinetic parameters (kcat and Km, Materials and Methods).
(§2) Substrate tolerance of AKR1Cs: Isozyme Activity with 5a-5i: Activity of the second generation of fluorogenic substrates with the AKR1C isozymes was determined as follows. To a STARNA semi-micro fluorimeter cell (with 4 polished windows) was added 100 μL of 1 M potassium phosphate buffer (pH 6), 840 μL doubly deionized water, and 20 μL of 12.5 mM NADPH. After mixing the aqueous components thoroughly, 20 μL of acetonitrile was added as a cosolvent and mixed well. 20 μL of 2.5 mM second generation fluorogenic ketone in acetonitrile (5a-5i) was then added and mixed. 4 μL of undiluted AKR1C (provided generously by the Penning lab at concentrations of 2.5 mg/mL) were then added to the cuvette for a total of 10 μg purified enzyme in the 1 mL assay volume. Fluorescence arising from the respective alcohol reduction product was then monitored over the course of 5-10 minutes.
Binding constant and catalytic rates (Km and kcat) of the second generation of fluorogenic substrates was determined as follows. To a STARNA semi-micro fluorometer cell (with 4 polished windows) was added 100 μL of 1 M potassium phosphate buffer (pH 6), 840 μL doubly deionized water, and 20 AL of 12.5 mM NADPH. After mixing the aqueous components thoroughly, 20 μL of acetonitrile was added as a cosolvent and mixed well. […] Fluorescence arising from the respective alcohol reduction product was then monitored over the course of 3 minutes (Excitation and emission band pass slits both at 4 nm, lamp 700 V, λexc 410 nm, λem 510). The rate of product formation, expressed in units of nanomoles per minute, were calculated according to previously published procedures (Wierzchowski, J.; Dafeldecker, W. P.; Holmquist, B.; Vallee, B. L. Anal. Biochem. 1989, 178, 57-62): […]

[1] = target: T1, Thermoanaerobium brockii alcohol dehydrogenase (TBAD) (Thermoanaerobacter brockii, UniProt P14941); test: Enzymatic screening of probes 1-7 against a panel of oxidoreductases; assay type: biochemical; settings: 12 hour incubation, 30-50 μM substrate, pH 7, 250 μM NAD(P)H
T1 construct: purchased Sigma (St. Louis, Mo.) Lot Number 033K4093 (catalogue number not given)
T1 sequence (P14941 1-352): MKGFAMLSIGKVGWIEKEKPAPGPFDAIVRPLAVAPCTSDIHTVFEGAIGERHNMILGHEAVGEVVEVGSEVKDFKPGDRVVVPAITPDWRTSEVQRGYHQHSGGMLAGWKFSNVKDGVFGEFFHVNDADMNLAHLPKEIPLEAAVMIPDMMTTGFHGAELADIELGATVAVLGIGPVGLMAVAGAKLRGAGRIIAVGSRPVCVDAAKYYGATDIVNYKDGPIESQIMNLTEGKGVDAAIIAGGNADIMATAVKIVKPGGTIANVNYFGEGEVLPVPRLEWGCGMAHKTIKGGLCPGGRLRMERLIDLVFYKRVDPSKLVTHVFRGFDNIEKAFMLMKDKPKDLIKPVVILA
Method: (§3) FIG. 4. Screening of probes 1-7 against a panel of oxidoreductases Percentage fluorescence increase after 12 hour incubation of 30-50 μM substrate, 100 mM phosphate buffer (pH 7), 250 μM NAD(P)H, and 100 nM enzyme. Substrates 1, 2, 3, and 4 monitored at λexc=340 nm, λem=440 nm. Substrates 5, 6, and 7 monitored at λexc=440 nm, λem=510 nm. 3HSD, 3α-hydroxysteroid dehydrogenase (PT, Pseudomonas testosteroni), HLAD, horse liver alcohol dehydrogenase, TBAD, Thermoanaerobium brockii alcohol dehydrogenase, BS 12HSD, Bacillus sp. 12α-hydroxysteroid dehydrogenase, ABAD, amyloid-β binding alcohol dehydrogenase (human), GDH, glycerol dehydrogenase, YADH, yeast alcohol dehydrogenase, LDH, lactate dehydrogenase.
(§4) Probes 1-7 (see FIG. 3) were subsequently tested against a collection of dehydrogenases in the presence of NAD(P)H; the extent of reduction was assessed by the measurement of fluorescence intensity at the emission maximum of each probe (FIG. 4). This assay included enzymes from two major oxidoreductase superfamilies, the short chain alcohol dehydrogenases (SDR) and the aldo-keto reductases (AKR), ranging from bacterial to mammalian and human enzymes.
(§5) Horse Liver alcohol dehydrogenase (Lot Number 51K7520), Thermoanaerobium brockii NADP^+ dependent alcohol dehydrogenase (Lot Number 033K4093), Pseudomonas testosteroni 3α-hydroxysteroid dehydrogenase (Lot Number 053K8624), and Bacillus sphaericus 12α-hydroxysteroid dehydrogenase (Lot Number 70K16621) were purchased from Sigma (St. Louis, Mo.). Yeast alcohol dehydrogenase (Lot Number 93122920), glycerol dehydrogenase (Lot Number 92110122), (D)-lactate dehydrogenase (Lot Number 92419236), (L)-lactate dehydrogenase (Lot Number 92801821), NAD^+, NADP^+, NADH, and NADPH were purchased from Roche. Enzyme activity was confirmed by compliance to supplier's quality control assays prior to usage. Rat and human 3α-hydroxysteroid dehydrogenases were provided by Professor Trevor Penning (University of Pennsylvania School of Medicine) and human amyloid-β peptide binding alcohol dehydrogenase was supplied by Professor Shi Du Yan (Columbia University School for Physicians and Surgeons).
(§6) Enzymatic assays were performed in triplicate on selected fluorogenic substrates according to the following protocol. To each well of a FALCON 96-well black flat bottom plate was added (1) 40 μL of 500 mM potassium phosphate buffer pH 7.0, (2) 113 μL of double deionized water, (3) 25 μL of 2 mM NADH (except for Pseudomonas testosteroni 3α-hydroxysteroid dehydrogenase, rat 3α-hydroxysteroid dehydrogenase, and Thermoanaerobium brockii NADP^+ dependent alcohol dehydrogenase, in which cases 2 mM of NADPH was used), (4) 2 μL of a 3-5 mM solution of substrate in DMSO, and (5) 20 μL of a 40-50 μg/mL solution of enzyme. Reaction volumes were mixed thoroughly after addition of cofactor, substrate, and enzyme and allowed to react 12 hours at 25° C. Scanning of the 96-well plate was performed by the MicroMax 384 connected to a Jobin Yvon Fluorolog through F-3000 fiber optic cables.
(§7) Initial Screening with Fluorogenic Substrates: Screening of the first fluorogenic substrates for enzymatic activity has been described above. In short, 200 μL enzymatic assay volumes containing 100 mM potassium phosphate buffer (pH 7), 250 μM NAD(P)H cofactor, and 30-50 μM of ketones (1-7) were incubated for 12 hours on a black FALCON 96-well plate. Formation of the alcohol reduction product was determined by reading the fluorescence arising from excitation at the corresponding alcohol at either 340 nm (27-30) or 440 nm (31-33).

[2] = target: T2, horse liver alcohol dehydrogenase (HLAD) (Equus caballus, UniProt P00327); test: as above; assay type: biochemical; settings: 12 hour incubation, 30-50 μM substrate, pH 7, 250 μM NAD(P)H
T2 construct: purchased Sigma (St. Louis, Mo.) Lot Number 51K7520 (catalogue number not given)
Method: as §3, §4, §5, §6, §7

[3] = substrate: CC(=O)c1cc(=O)oc2c3c(ccc12)NCCC3; test: Steady state kinetic parameters of fluorogenic substrates with purified AKR1C isozymes; assay type: biochemical, human; settings: other: isozyme 1C1, potassium phosphate buffer pH 6, NADPH, fluorimetric
Excerpt: as §1, §2
(§8) Binding constant and catalytic rates (Km and kcat) of the second generation of fluorogenic substrates was determined as follows. To a STARNA semi-micro fluorometer cell (with 4 polished windows) was added 100 μL of 1 M potassium phosphate buffer (pH 6), 840 μL doubly deionized water, and 20 AL of 12.5 mM NADPH. After mixing the aqueous components thoroughly, 20 μL of acetonitrile was added as a cosolvent and mixed well. 20 μL of the second generation fluorogenic ketone (5a-5i) was then added and mixed to achieve assay concentrations of 5Km to Km/5. To initiate the reduction, 2 or 4 μL of diluted AKR1C (1:2 to 1:100, depending on the kinetics of a particular isozyme's reduction of a substrate) was then added to the cuvette. Fluorescence arising from the respective alcohol reduction product was then monitored over the course of 3 minutes (Excitation and emission band pass slits both at 4 nm, lamp 700 V, λexc 410 nm, λem 510). The rate of product formation, expressed in units of nanomoles per minute, were calculated according to previously published procedures (Wierzchowski, J.; Dafeldecker, W. P.; Holmquist, B.; Vallee, B. L. Anal. Biochem. 1989, 178, 57-62):
(§9) initial rate=[nst×(Ft−F0)/(Fst)]/t (1)
(§10) where Ft and F0 represent the fluorescence at times t and 0 minutes, nst is the nanomoles of product in a known concentration of product, and Fst is the fluorescence resulting from nst of product. Kinetic parameters were approximated by GraFit (Erithacus Software, Surrey, UK) nonlinear regression analysis program to fit the untransformed data to a hyperbolic function as originally described (Wierzchowski, J.; Dafeldecker, W. P.; Holmquist, B.; Vallee, B. L. Anal. Biochem. 1989, 178, 57-62). Reported enzymatic kinetic parameters are the average of three independent determinations from three different preparations of substrate and enzyme.

[4] = substrate: CC(=O)c1cc(=O)oc2c3c4c(cc12)CCCN4CCC3; test: as above; assay type: biochemical, human; settings: other: isozyme 1C1, potassium phosphate buffer pH 6, NADPH, fluorimetric
Excerpt: as §1, §2, §8, §9, §10

[5] = substrate: O=C(c1ccccc1)c1cc(=O)oc2c3c4c(cc12)CCCN4CCC3; test: as above; assay type: biochemical, human; settings: other: isozyme 1C1, potassium phosphate buffer pH 6, NADPH, fluorimetric
Excerpt: as §1, §2, §8, §9, §10

[6] = substrate: CC(=O)c1cc(=O)oc2cc(N(C)C)ccc12; test: as above; assay type: biochemical, human; settings: other: isozyme 1C1, potassium phosphate buffer pH 6, NADPH, fluorimetric
Excerpt: as §1, §2, §8, §9, §10

[7] = substrate: O=C1CCc2c1c1cc3c4c(c1oc2=O)CCCN4CCC3; test: as above; assay type: biochemical, human; settings: other: isozyme 1C1, potassium phosphate buffer pH 6, NADPH, fluorimetric
Excerpt: as §1, §2, §8, §9, §10

T2 sequence (P00327 2-375 limits assumed): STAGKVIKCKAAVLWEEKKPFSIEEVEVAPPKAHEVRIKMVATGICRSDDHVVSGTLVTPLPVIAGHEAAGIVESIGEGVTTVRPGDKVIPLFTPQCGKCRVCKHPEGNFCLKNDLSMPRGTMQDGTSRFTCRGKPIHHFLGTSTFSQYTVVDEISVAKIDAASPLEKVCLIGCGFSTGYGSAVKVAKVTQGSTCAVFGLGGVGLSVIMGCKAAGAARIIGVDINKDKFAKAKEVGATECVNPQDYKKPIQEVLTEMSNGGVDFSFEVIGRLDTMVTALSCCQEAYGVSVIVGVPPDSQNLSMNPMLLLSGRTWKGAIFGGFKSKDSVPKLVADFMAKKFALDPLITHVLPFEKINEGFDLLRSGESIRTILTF

CC(=O)c1c(Br)c(=O)oc2c3c4c(cc12)CCCN4CCC3 [5e, 8-Acetyl-9-bromo-2,3,5,6-tetrahydro-1H,4H-11-oxa-3a-aza-benzo[de]anthracen-10-one]
acceptance as substrate by the four human isozymes (AKR1C1-AKR1C4): not accepted as substrates by any of the tested 3a-HSD enzymes

CC(=O)C#Cc1cc2cc3c4c(c2oc1=O)CCCN4CCC3 [compound 7, 9-(3-Oxo-but-1-ynyl)-2,3,5,6-tetrahydro-1H,4H-11-oxa-3a-aza-benzo[de]anthracen-10-one]
reduction of probe (fluorescence increase) [1]: catalyzed reduction
reduction of probe (fluorescence increase) [2]: catalyzed reduction

COc1ccc2cc(C#CC(C)=O)c(=O)oc2c1 [compound 4, 7-Methoxy-3-(3-oxo-but-1-ynyl)-coumarin]
reduction of probe (fluorescence increase) [1]: catalyzed reduction
reduction of probe (fluorescence increase) [2]: catalyzed reduction

CC(=O)c1c(-c2ccccc2)c(=O)oc2c3c4c(cc12)CCCN4CCC3 [5f, 8-Acetyl-9-phenyl-2,3,5,6-tetrahydro-1H,4H-11-oxa-3a-aza-benzo[de]anthracen-10-one]
acceptance as substrate by the four human isozymes (AKR1C1-AKR1C4): not accepted as substrates by any of the tested 3a-HSD enzymes

B1: AKR1C1 (Homo sapiens) (protein)
chain: MDSKYQCVKLNDGHFMPVLGFGTYAPAEVPKSKALEATKLAIEAGFRHIDSAHLYNNEEQVGLAIRSKIADGSVKREDIFYTSKLWCNSHRPELVRPALERSLKNLQLDYVDLYLIHFPVSVKPGEEVIPKDENGKILFDTVDLCATWEAVEKCKDAGLAKSIGVSNFNRRQLEMILNKPGLKYKPVCNQVECHPYFNQRKLLDFCKSKDIVLVAYSALGSHREEPWVDPNSPVLLEDPVLCALAKKHKRTPALIALRYQLQRGVVVLAKSYNEQRIRQNVQVFEFQLTSEEMKAIDGLNRNVRYLTLDIFAGPPNYPFSDEY
notes: gift of the Penning lab (University of Pennsylvania School of Medicine)
Km [3]: 35.3 ± 2.9 4.8 ± 0.3 8.3 ± 0.9 40.2 ± 3.4 μM
kcat [3]: 0.11 s⁻¹
kcat/Km [3]: 0.19 6.0 0.84 0.036 min^−1 μM^−1
Km [4]: 24.4 ± 2.3 7.3 ± 0.4 1.1 ± 0.1 20.6 ± 1.9 μM
kcat [4]: 0.0183 s⁻¹
kcat/Km [4]: 0.046 2.1 6.9 0.020 min^−1 μM^−1
Km [5]: 5.5 ± 0.7 3.0 ± 0.2 0.051 ± 0.005 6.2 ± 0.7 μM
kcat [5]: 0.025 s⁻¹
kcat/Km [5]: 0.27 7.8 106 0.10 min^−1 μM^−1
Km [6]: 21.0 ± 1.3 7.2 ± 0.6 4.3 ± 0.3 14.8 ± 0.9 μM
kcat [6]: 0.0333 s⁻¹
kcat/Km [6]: 0.10 3.0 2.1 0.14 min^−1 μM^−1
Km [7]: 4.0 ± 0.6 4.5 ± 0.6 0.13 μM
kcat [7]: 1.6 0.40 7.2 no activity
kcat/Km [7]: 0.39 0.08 56 min^−1 μM^−1
